Reference: patent US20020086312A1 (IMMUNEX, published 2002)

Key:
[1] = molecular target: T1, full-length human RANK (SEQ ID NO:2) (human, UniProt Q9Y6Q6 29-616); test: cell-based or functional assay
T1 sequence: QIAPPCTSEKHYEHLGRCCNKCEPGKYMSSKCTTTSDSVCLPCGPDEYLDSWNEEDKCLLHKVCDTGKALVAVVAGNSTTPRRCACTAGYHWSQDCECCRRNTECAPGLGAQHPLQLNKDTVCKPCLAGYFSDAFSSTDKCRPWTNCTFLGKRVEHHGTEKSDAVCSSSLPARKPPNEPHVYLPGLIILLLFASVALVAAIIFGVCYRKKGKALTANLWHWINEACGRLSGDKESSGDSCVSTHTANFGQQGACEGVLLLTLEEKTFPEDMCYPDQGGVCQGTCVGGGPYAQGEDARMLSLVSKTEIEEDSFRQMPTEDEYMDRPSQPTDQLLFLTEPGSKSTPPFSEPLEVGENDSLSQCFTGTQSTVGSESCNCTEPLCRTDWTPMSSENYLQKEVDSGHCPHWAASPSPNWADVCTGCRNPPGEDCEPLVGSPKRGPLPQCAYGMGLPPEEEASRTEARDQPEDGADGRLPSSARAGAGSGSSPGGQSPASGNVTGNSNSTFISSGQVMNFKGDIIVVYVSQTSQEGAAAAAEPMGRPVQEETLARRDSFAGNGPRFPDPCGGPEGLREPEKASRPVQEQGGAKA

[2] = molecular target: T2, murine RANK, endogenous on RAW 264.7 cells (murine) (UniProt O35305); test: cell-based or functional assay
T2 sequence: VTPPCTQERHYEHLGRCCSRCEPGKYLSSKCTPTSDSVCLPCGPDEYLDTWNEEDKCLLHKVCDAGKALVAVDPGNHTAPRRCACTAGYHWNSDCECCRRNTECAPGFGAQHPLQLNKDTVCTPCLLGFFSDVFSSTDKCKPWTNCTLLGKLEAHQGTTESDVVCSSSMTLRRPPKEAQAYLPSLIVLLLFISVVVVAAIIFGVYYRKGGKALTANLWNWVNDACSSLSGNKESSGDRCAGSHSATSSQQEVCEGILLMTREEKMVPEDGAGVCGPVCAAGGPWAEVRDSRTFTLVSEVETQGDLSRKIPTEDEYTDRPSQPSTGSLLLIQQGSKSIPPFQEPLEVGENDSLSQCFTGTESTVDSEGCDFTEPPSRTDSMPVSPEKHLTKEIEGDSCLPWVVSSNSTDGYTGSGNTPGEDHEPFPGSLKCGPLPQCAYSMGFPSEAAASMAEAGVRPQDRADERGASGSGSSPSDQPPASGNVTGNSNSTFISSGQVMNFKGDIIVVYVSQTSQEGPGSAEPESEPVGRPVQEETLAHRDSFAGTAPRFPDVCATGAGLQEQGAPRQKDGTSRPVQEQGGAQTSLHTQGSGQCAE

murine RANK-L (mRANK-L, 200 ng/ml in the differentiation medium) (from UniProt O35235 70-316) (ligand)
32P incorporation into a c-src-specific substrate by extracts of RANK -/- spleen cells expressing wild-type RANK, after differentiation in CSF-1 and mRANK-L [1]: 15 fold
F-actin ring formation (fluorescent phalloidin staining) in RANK -/- cells expressing wild-type RANK, cultured 5 days with CSF-1 and mRANK-L (% of the cells) [1]: > 50

leucine zipper form of murine RANK-L (from UniProt O35235 70-316) (ligand)
induction of the MMP-9/luciferase promoter in transfected RAW 264.7 cells, 1 ug/ml for 18 hours [2]: 10 to 15 fold
mouse MMP-9 mRNA in RAW 264.7 cells by quantitative RT-PCR, 200 ng/ml [2]: > 350 fold
mouse TRAP mRNA in RAW 264.7 cells by quantitative RT-PCR, 200 ng/ml [2]: > 250 fold

B1: human full-length RANK-L (SEQ ID NO:6) (ligand)
chain: MRRASRDYTKYLRGSEEMGGGPGAPHEGPLHAPPPPAPHQPPAASRSMFVALLGLGLGQVVCSVALFFYFRAQMDPNRISEDGTHCIYRILRLHENADFQDTTLESQDTKLIPDSCRRIKQAFQGAVQKELQHIVGSQHIRAEKAMVDGSWLDLAKRSKLEAQPFAHLTINATDIPSGSHKVSLSSWYHDRGWAKISNMTFSNGKLIVNQDGFYYLYANICFRHHETSGDLATEYLQLMVYVTKTSIKIPSSHTLMKGGSTKYWSGNSEFHFYSINVGGFFKLRSGEEISIEVSNPSLLDPDQDATYFGAFKVRDID
luciferase reporter expression from the human TRAP promoter, co-transfected 293/EBNA cells [1]: ~1.5 fold
luciferase reporter expression from the mouse TRAP promoter, co-transfected 293/EBNA cells [1]: ~4 fold
luciferase reporter expression from the murine MMP-9 promoter, co-transfected 293/EBNA cells [1]: 2.5 fold
